Bridge positions count the residues as written; N and C are the ends. Square brackets hold non-standard residues; d marks the D form. Ends that are not written are not given here.
What was measured:
[1] = biological target: T1, V1bR (Homo sapiens, UniProt P47901); assay: radioligand displacement
T1 chain: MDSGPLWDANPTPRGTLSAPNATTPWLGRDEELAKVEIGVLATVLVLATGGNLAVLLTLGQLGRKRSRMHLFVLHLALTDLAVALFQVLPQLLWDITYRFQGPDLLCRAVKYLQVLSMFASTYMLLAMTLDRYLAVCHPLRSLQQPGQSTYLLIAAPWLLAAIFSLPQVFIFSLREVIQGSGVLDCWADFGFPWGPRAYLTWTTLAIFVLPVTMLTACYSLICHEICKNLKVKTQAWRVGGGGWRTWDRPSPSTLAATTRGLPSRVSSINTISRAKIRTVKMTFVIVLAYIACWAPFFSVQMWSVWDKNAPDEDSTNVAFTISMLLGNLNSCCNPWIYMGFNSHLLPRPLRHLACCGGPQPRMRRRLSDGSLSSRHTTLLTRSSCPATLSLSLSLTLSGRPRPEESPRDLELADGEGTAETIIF

[2] = biological target: T2, OTR (Homo sapiens, UniProt P30559); assay: radioligand displacement
T2 chain: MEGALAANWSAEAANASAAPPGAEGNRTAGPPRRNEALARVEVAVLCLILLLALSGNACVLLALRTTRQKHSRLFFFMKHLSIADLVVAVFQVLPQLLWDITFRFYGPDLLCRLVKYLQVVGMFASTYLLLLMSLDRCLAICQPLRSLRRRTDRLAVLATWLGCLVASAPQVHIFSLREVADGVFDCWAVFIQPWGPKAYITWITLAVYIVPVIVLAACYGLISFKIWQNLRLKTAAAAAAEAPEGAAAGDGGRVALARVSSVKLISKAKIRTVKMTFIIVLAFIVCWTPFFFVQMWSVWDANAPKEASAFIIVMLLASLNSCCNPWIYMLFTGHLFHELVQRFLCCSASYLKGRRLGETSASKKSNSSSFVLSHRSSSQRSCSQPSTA

[3] = biological target: T3, V1aR (Homo sapiens, UniProt P37288); assay: radioligand displacement
T3 sequence (P37288 whole entry): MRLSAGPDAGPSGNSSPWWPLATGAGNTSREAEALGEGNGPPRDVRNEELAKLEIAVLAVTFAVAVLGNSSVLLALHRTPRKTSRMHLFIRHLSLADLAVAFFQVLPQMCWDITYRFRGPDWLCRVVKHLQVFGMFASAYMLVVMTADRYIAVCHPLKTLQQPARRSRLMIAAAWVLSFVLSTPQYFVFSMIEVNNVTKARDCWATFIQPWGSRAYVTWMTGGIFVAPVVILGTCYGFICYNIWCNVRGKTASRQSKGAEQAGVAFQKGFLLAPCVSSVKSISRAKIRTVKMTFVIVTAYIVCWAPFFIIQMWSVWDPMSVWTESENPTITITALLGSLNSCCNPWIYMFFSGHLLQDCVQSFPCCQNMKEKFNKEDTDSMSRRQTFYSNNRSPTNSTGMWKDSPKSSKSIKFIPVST

[4] = biological target: T3, V1aR; assay: Schild analysis (IP1 assay)

CLITNCP[dR]G-NH2 (disulfide 1-6 (inferred)) [[D-Arg8]-inotocin]
Ki [1]: > 100000 nM
Ki [2]: > 4000 nM
Ki [3]: 1.3 nM
Ki [4]: ~16 nM

Reference: PMC5286520 (2017)
